Reference: patent US20160194394A1 (GOVERNING COUNCIL OF THE UNIVERSITY OF TORONTO, published 2016)
Read-outs that look alike come from different tables or passages of the source.

T1: FZD4 ECD
T1 construct: also called Fzd4 CRD-Fc fusion protein (R&D systems); not shown: exact vendor limits of the CRD construct
T1 chain: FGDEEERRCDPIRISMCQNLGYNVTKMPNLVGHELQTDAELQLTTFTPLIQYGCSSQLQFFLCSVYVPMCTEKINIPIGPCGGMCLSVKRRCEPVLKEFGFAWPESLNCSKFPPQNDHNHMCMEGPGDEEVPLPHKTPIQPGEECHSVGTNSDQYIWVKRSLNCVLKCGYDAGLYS

T2: human Fzd8-Fc
T2 construct: also called FZD8 ECD; Fzd8 CRD-Fc fusion protein (R&D systems); not shown: exact vendor limits of the CRD construct
T2 chain: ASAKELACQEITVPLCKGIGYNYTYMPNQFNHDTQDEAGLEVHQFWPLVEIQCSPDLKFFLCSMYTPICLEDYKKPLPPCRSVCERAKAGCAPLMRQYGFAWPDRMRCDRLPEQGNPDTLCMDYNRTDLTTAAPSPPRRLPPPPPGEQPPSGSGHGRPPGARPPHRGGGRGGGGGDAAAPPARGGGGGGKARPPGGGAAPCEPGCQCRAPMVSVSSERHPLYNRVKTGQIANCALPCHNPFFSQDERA

T3: human Fzd5-Fc
T3 construct: also called FZD5 ECD; Fzd5 CRD-Fc fusion protein (R&D systems); not shown: exact vendor limits of the CRD construct
T3 chain: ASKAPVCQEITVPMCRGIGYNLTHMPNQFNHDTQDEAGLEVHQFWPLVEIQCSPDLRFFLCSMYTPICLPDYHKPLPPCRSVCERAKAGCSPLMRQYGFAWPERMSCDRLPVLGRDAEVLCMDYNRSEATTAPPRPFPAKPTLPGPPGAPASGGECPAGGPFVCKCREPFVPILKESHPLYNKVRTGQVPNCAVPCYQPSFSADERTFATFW


Columns and labels:
[1] = target: T4, recombinant Frizzled receptor 7 (FZD7) cysteine-rich domain (CRD) fused to the Fc region of human IgG (human, UniProt O75084 33-185); experiment: competitive ELISA, detected phage-Fab D10
[2] = target: T4, recombinant Frizzled receptor 7 (FZD7) …; experiment: ELISA, 1ug/ml (20nM) Fab [cont'd]
In short: (§1)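 Plates coated with 2 ug/ml FZD7-Fc or Fc protein were probed with bacterially expressed purified Fabs for 1 h at room temperature in 0.5% BSA/0.05% Tween20/PBS. Bound Fab detected with anti-FLAG-HRP for 45 min, developed with TMB and acid stop, and read as absorbance at 450 nm; n.t. = not tested.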

[3] = target: T4, recombinant Frizzled receptor 7 (FZD7) …; experiment: SPR
[4] = target: T4, recombinant Frizzled receptor 7 (FZD7) …; experiment: competitive ELISA, detected phage-Fab G6
[5] = target: T5, FZD7 receptor expressed on cells (full-length) (UniProt O75084 33-574, limits assumed); experiment: flow cytometry, 200 nM Fab, FZD7 over-expression line (MDA MB 231) [cont'd]
T5 construct: whole, on cells; MDA MB 231 cells may carry other Frizzled receptors too; also called full-length FZD7 receptor; endogenous receptor on MDA MB 231 cells
In short: (§2)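 EDTA-harvested MDA MB 231 cells, either FZD7-overexpressing or with endogenous receptor, were blocked in 2% FBS/PBS and stained with Fab for 30 min on ice. Detection used anti-F(ab′)₂-APC (1:1000, 15 min on ice), then 1% paraformaldehyde fixation and flow cytometry. Values are percent of cells in positive gates.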

[6] = target: T4, recombinant Frizzled receptor 7 (FZD7) …; experiment: ELISA, 10ug/ml (200nM) Fab [cont'd]
In short: as §1

[7] = target: T4, recombinant Frizzled receptor 7 (FZD7) …; experiment: competitive ELISA, detected phage-Fab H1
[8] = target: T4, recombinant Frizzled receptor 7 (FZD7) …; experiment: competitive ELISA, detected phage-Fab E8
[9] = target: T5, FZD7 receptor expressed on cells …; experiment: flow cytometry, 200 nM Fab, MDA MB 231 [cont'd]
In short: as §2

[10] = target: T4, recombinant Frizzled receptor 7 (FZD7) …; experiment: competitive ELISA, detected phage-Fab H3
[11] = target: T4, recombinant Frizzled receptor 7 (FZD7) …; experiment: competitive ELISA, detected phage-Fab G2
[12] = target: T4, recombinant Frizzled receptor 7 (FZD7) …; experiment: competitive ELISA, detected phage-Fab A1
[13] = target: T5, FZD7 receptor expressed on cells …; experiment: cell-based or functional assay
[14] = target: T4, recombinant Frizzled receptor 7 (FZD7) …; experiment: competitive ELISA, detected phage-Fab E4
mouse Fzd2-Fc = target: T6, mouse Fzd2-Fc; experiment: SPR
T6 construct: also called mFZD2 ECD; Fzd2 CRD-Fc fusion protein (R&D systems); not shown: exact vendor limits of the CRD construct

[15] = target: T4, recombinant Frizzled receptor 7 (FZD7) …; experiment: SPR; remark: listed apart in the source
human Fzd1-Fc = target: T7, human Fzd1-Fc; experiment: SPR
T7 construct: also called FZD1 ECD; Fzd1 CRD-Fc fusion protein (R&D systems); not shown: exact vendor limits of the CRD construct

FZD4 ECD = target: T1, FZD4 ECD; experiment: SPR
human Fzd8-Fc = target: T2, human Fzd8-Fc; experiment: SPR
human Fzd5-Fc = target: T3, human Fzd5-Fc; experiment: SPR
[16] = target: T4, recombinant Frizzled receptor 7 (FZD7) …; experiment: competitive ELISA, detected phage-Fab H10
[17] = target: T5, FZD7 receptor expressed on cells …; experiment: cell-based or functional assay; remark: listed apart in the source
[18] = target: recombinant Frizzled receptor 7 (FZD7) cysteine-rich domain (CRD) fused to the Fc region of human IgG (human, UniProt O75084 33-185); experiment: SPR; remark: listed apart in the source
[19] = target: T5, FZD7 receptor expressed on cells …; experiment: flow cytometry, 200 nM Fab, FZD7 over-expression line (MDA MB 231)
In short: as §2

[20] = target: T5, FZD7 receptor expressed on cells …; experiment: flow cytometry, 200 nM Fab, MDA MB 231
In short: as §2

[21] = target: T4, recombinant Frizzled receptor 7 (FZD7) …; experiment: ELISA, 1ug/ml (20nM) Fab
In short: as §1

[22] = target: T4, recombinant Frizzled receptor 7 (FZD7) …; experiment: ELISA, 10ug/ml (200nM) Fab
In short: as §1

T6 sequence (chain, as listed by the source limits assumed): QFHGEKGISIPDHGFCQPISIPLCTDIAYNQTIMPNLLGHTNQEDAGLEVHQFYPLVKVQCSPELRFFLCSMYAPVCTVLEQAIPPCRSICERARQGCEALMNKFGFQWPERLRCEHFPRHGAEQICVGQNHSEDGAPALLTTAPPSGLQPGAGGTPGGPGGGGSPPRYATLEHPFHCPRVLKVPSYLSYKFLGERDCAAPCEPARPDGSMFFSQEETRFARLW
T7 sequence (chain, as listed by the source limits assumed): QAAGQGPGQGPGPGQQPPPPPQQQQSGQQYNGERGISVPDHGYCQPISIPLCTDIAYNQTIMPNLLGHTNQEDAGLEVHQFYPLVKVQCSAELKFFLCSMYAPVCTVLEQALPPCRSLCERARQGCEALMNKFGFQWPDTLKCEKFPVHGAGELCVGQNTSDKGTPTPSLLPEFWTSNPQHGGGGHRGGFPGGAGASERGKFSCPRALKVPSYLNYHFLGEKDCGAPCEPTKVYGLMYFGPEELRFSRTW

% of Fab phage in presence of 750 nM Fab [1] [%]	Kd [3] [nM]	koff [3] [s⁻¹]	kon [3] [M⁻¹ s⁻¹]	% of Fab phage in presence of 750 nM Fab [4] [%]	% of Fab phage in presence of 750 nM Fab [7] [%]	% of Fab phage in presence of 750 nM Fab [8] [%]	% of Fab phage in presence of 750 nM Fab [10] [%]	% of Fab phage in presence of 750 nM Fab [11] [%]	% of Fab phage in presence of 750 nM Fab [12] [%]	decrease in Wnt 3a-induced transcriptional activity (TOP-FLASH luciferase reporter in MDA MB 231 cells, 400 nM Fab) [13] [%]	% of Fab phage in presence of 750 nM Fab [14] [%]	Kd (mouse Fzd2-Fc) [nM]	Kd [15] [nM]	Kd (human Fzd1-Fc) [nM]	Kd (human Fzd8-Fc) [nM]	Kd (human Fzd5-Fc) [nM]	% of Fab phage in presence of 750 nM Fab [16] [%]	Binder	also measured
5	2.09	0.000994	476000	8.2	13.7	6.5	15.1	4.7	4.2	> 70	7.3	1.75	2.09	1.07	9.31	15.8	5.2	Fab A1 (Fab) chain 1: EVQLVESGGGLVQPGGSLRLSCAASGFNISSYYIHWVRQAPGKGLEWVASIYPYYSSTYYADSVKGRFTISADTSKNTAYLQMNSLRAEDTAVYYCARVWYGAMDYWGQGTLVTVSSASTKGPSVFPLAPSSKSTSGGTAALGCLVKDYFPEPVTVSWNSGALTSGVHTFPAVLQSSGLYSLSSVVTVPSSSLGTQTYICNVNHKPSNTKVDKKVEPKSC chain 2: DIQMTQSPSSLSASVGDRVTITCRASQSVSSAVAWYQQKPGKAPKLLIYSASSLYSGVPSRFSGSRSGTDFTLTISSLQPEDFATYYCQQYYHPITFGQGTKVEIKRTVAAPSVFIFPPSDSQLKSGTASVVCLLNNFYPREAKVQWKVDNALQSGNSQESVTEQDSKDSTYSLSSTLTLSKADYEKHKVYACEVTHQGLSSPVTKSFNRGECGGS	OD 450 [2]: 3.22; % population within the positive gate [5]: 93.1%; OD 450 [6]: 3.23; % population within the positive gate [9]: 98.6%; Kd (FZD4 ECD): 13.3 nM
																		IgG D10 (antibody, V domains shown, Fab converted into full-length IgG1, made in 293F cells) VL: DIQMTQSPSSLSASVGDRVTITCRASQSVSSAVAWYQQKPGKAPKLLIYSASSLYSGVPSRFSGSRSGTDFTLTISSLQPEDFATYYCQQYWAPITFGQGTKVEIK VH: EVQLVESGGGLVQPGGSLRLSCAASGFNIYYYYMHWVRQAPGKGLEWVASIYSYSGSTYYADSVKGRFTISADTSKNTAYLQMNSLRAEDTAVYYCARYASYVGYYPWALDYWGQGTLVTVSS	IC50, Wnt3a-induced Top Flash reporter (% ligand mediated) [17]: 123 nM; Kd [18]: 1.45 nM
6.8	1.03	0.000548	533000	29.1	53.5	7.1	27.7	7.4	21.8	> 70	20.9	0.95	1.03	3.67	2.5	3.06	7.4	Fab H10 (Fab) chain 1: EVQLVESGGGLVQPGGSLRLSCAASGFNIYYYSMHWVRQAPGKGLEWVASIYSSYSYTSYADSVKGRFTISADTSKNTAYLQMNSLRAEDTAVYYCARSSPGADYGLDYWGQGTLVTVSSASTKGPSVFPLAPSSKSTSGGTAALGCLVKDYFPEPVTVSWNSGALTSGVHTFPAVLQSSGLYSLSSVVTVPSSSLGTQTYICNVNHKPSNTKVDKKVEPKSC chain 2: DIQMTQSPSSLSASVGDRVTITCRASQSVSSAVAWYQQKPGKAPKLLIYSASSLYSGVPSRFSGSRSGTDFTLTISSLQPEDFATYYCQQWAYGPFTFGQGTKVEIKRTVAAPSVFIFPPSDSQLKSGTASVVCLLNNFYPREAKVQWKVDNALQSGNSQESVTEQDSKDSTYSLSSTLTLSKADYEKHKVYACEVTHQGLSSPVTKSFNRGECGGS	% population within the positive gate [19]: 93.2%; % population within the positive gate [20]: 99%; OD 450 [21]: 3.19; OD 450 [22]: 3.22
